For orientation: Kd means the free concentration of one partner at which half of the binding sites on the other are occupied at equilibrium, for simple one-to-one binding.

What all share (experiment): high-throughput RNA pulldown from lysate on Ni-NTA beads; HRP: 50 mM Tris pH 8, 150 mM NaCl, 1 mM beta-mercaptoethanol, 50 ug/ml BSA, 3 ug/ml yeast RNA, 0.5% heparin; ITC and FP: Tris pH 8, 200 mM KCl, 5% glycerol; MST: 50 mM Tris pH 8, 200 mM NaCl, 1 mM DTT, BSA, heparin, 0.05% Tween 20
Holding throughout (conditions): tags: N-terminal His-eGFP

Series [1] has as its target T1, GFP-9S library array, motif 4 ND N98R;D124R (synthetic construct, N98R;D124R).
T1 chain: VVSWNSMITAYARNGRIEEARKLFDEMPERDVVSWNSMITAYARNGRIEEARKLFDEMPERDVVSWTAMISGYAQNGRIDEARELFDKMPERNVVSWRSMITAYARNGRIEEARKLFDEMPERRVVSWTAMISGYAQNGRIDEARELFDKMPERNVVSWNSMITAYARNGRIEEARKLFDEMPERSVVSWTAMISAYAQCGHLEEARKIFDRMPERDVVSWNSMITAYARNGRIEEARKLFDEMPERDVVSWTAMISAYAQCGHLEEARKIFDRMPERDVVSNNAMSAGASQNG

Series [2] deals with T2, GFP-9S library array, motif 4 ND N98L;D124M (synthetic construct, N98L;D124M).
T2 chain: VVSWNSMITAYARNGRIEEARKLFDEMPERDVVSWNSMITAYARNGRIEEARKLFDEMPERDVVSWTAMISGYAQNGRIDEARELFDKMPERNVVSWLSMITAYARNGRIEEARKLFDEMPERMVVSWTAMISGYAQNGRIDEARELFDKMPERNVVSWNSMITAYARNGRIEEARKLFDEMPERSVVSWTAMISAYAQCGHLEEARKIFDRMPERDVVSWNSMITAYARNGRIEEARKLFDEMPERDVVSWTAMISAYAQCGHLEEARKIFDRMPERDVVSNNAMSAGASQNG

Series [3] deals with T3, GFP-9S library array, motif 4 ND N98T;D124A (synthetic construct, N98T;D124A).
T3 chain: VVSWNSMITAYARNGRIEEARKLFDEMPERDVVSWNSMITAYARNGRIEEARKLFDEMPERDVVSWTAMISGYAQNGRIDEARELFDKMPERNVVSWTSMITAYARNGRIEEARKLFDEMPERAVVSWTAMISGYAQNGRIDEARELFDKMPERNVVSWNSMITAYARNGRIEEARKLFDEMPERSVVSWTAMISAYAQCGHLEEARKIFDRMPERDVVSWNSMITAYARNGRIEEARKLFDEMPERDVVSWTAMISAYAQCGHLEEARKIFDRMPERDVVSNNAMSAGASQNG

Series [4] concerns the target T4, GFP-9S library array, motif 4 ND N98I;D124A (synthetic construct, N98I;D124A).
T4 chain: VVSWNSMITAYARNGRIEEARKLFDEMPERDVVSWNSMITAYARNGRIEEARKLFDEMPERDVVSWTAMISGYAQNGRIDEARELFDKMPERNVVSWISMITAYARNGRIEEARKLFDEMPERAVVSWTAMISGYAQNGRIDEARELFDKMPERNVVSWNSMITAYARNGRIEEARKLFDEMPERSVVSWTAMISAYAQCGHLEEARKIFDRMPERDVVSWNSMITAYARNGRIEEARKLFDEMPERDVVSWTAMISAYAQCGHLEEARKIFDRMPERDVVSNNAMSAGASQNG

Series [5] addresses T5, GFP-9S library array, motif 4 ND N98M;D124T (synthetic construct, N98M;D124T).
T5 chain: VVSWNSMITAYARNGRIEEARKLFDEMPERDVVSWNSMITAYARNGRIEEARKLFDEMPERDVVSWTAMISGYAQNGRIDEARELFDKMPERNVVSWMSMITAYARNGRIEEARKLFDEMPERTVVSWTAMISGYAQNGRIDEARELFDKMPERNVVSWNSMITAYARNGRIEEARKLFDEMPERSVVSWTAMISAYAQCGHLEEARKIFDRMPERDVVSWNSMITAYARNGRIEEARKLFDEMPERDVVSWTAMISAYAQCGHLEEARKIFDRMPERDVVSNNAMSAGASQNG

As for AUUAAACGUGA (ssRNA) [IR-rpoA-A], the Kd stood at 82 nM in series [1] (label: 5' IRDye 800CW); 381 nM in series [2] (label: 5' IRDye 800CW); 52.8 nM in series [3] (label: 5' IRDye 800CW); 620 nM in series [4] (label: 5' IRDye 800CW); 116 nM in series [5] (label: 5' IRDye 800CW).

In the case of AUUACACGUGA (ssRNA) [Cy5-rpoA], the Kd is 97.6 nM in series [1] (label: 5' Cy5); 104 nM in series [2] (label: 5' Cy5); 107 nM in series [3] (label: 5' Cy5); 213 nM in series [4] (label: 5' Cy5); 124 nM in series [5] (label: 5' Cy5).

Consider AUUAUACGUGA (ssRNA) [IR-rpoA-U], for which the Kd is 97.9 nM in series [1] (label: 5' IRDye 800CW); 176 nM in series [2] (label: 5' IRDye 800CW); 173 nM in series [3] (label: 5' IRDye 800CW); 757 nM in series [4] (label: 5' IRDye 800CW); 109 nM in series [5] (label: 5' IRDye 800CW).

With AUUAGACGUGA (ssRNA) [Cy5-rpoA-G], the Kd in series [1] (label: 5' Cy5) was 53.3 nM; in series [2] (label: 5' Cy5) it was 122 nM; in series [3] (label: 5' Cy5) it was 70.1 nM; in series [4] (label: 5' Cy5), 259 nM; in series [5] (label: 5' Cy5), 115 nM.

Source of the values: article PMC8809517, “Cofactor-independent RNA editing by a synthetic S-type PPR protein”.
